Substitutions are numbered along the chain they refer to. Where two headings read alike, the source gives them in different places.

Experiment [1] has as its target T1, rat DLL4 extracellular domain (rat, UniProt D3ZHH1 28-530).
T1 construct: extracellular domain; also called ratDLL4 ECD
Nature of the experiment: SPR (Biacore). On the procedure: (§1) The BIACORE® surface plasmon resonance assay (Biacore, Inc., Piscataway, N.J., US) determines the affinity of antibodies with kinetic measurements of on-rate and off-rate constants. Binding of DLL4 antibodies to a purified recombinant DLL4 extracellular domain (ECD) was determined by surface plasmon resonance-based measurements with a Biacore® instrument (either a Biacore 2000, Biacore 3000, or Biacore T100; GE Healthcare, Piscataway, N.J., US) using running buffer HBS-EPB (10 mM HEPES [pH 7.4], 150 mM NaCl, 3 mM EDTA, 0.1 mg/ml BSA and 0.005% surfactant P20) at 25° C. For example, approximately 9000 RU of goat anti-human Fc specific polyclonal antibody (Thermo Fisher Scientific Inc., Rockford, Ill., US) diluted in 10 mM sodium acetate (pH 4.5) is directly immobilized across a CMS research grade biosensor chip using a standard amine coupling kit according to manufacturer's instructions and procedures at 25 μg/ml. Unreacted moieties on the biosensor surface were blocked with ethanolamine. For kinetic analysis, rate equations derived from the 1:1 Langmuir binding model were fitted simultaneously to multiple antigen injections (using global fit analysis) with the use of Scrubber 2 (BioLogic Software), Biacore Biaevaluation 4.0.1 software or Biacore T100 Evaluation software. Purified antibodies were diluted in running buffer for capture across goat anti-human Fc reaction surfaces. Antibodies to be captured as a ligand (1 μg/ml) were injected over reaction matrices at a flow rate of 10 μl/min. During the assay, all measurements were referenced against the capture surface alone (i.e., with no captured anti-DLL4 antibody). […] The equilibrium dissociation constant KD (M) of the reaction between antibodies and the target antigen was then calculated from the kinetic rate constants by the following formula: KD=Koff/Kₒₙ. Binding was recorded as a function of time and kinetic rate constants were calculated.
(In general: In SPR one partner is held on a chip, and binding of the other changes the refractive index at the surface.)

Experiment [2] has as its target T2, mouse DLL4 on cells (mouse, UniProt Q9JI71 27-686). In words: cell-based or functional assay.
For experiment [3], the target named is T3, human DLL4, full length, on cells (human, UniProt Q9NR61 27-685). Nature of the experiment: cell-based or functional assay.
T3 sequence (Q9NR61 27-685 limits assumed): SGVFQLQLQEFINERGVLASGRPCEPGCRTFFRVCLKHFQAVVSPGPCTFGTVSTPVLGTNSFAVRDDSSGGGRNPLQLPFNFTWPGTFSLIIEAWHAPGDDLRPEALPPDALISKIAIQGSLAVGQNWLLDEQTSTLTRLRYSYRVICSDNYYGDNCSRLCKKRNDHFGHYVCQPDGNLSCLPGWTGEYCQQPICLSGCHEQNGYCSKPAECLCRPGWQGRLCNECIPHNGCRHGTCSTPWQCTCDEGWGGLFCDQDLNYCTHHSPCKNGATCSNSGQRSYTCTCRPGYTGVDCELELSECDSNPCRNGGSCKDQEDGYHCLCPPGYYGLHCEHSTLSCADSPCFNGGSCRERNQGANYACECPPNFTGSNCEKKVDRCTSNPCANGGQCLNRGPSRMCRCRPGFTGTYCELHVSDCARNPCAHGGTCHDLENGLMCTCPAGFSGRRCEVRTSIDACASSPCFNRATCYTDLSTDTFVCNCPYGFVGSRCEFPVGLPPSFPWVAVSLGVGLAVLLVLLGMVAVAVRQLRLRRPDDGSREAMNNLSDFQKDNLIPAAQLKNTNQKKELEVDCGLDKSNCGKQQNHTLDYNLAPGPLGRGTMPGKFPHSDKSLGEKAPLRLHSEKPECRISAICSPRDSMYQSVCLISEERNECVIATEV
Experiment [4] addresses T4, cynomolgus monkey DLL4 extracellular domain (cynomolgus monkey).
T4 construct: extracellular domain; also called cynoDLL4 ECD; Cyno DLL4
In words: SPR (Biacore). On the procedure: as §1

The target in experiment [5] is T5, human DLL4 extracellular domain (human, UniProt Q9NR61 27-529).
T5 construct: purified recombinant ECD; biotin-labelled or 6xHis-tagged depending on the assay; also called huDLL4 ECD; hu DLL4 ECD
T5 sequence (Q9NR61 27-529 limits assumed): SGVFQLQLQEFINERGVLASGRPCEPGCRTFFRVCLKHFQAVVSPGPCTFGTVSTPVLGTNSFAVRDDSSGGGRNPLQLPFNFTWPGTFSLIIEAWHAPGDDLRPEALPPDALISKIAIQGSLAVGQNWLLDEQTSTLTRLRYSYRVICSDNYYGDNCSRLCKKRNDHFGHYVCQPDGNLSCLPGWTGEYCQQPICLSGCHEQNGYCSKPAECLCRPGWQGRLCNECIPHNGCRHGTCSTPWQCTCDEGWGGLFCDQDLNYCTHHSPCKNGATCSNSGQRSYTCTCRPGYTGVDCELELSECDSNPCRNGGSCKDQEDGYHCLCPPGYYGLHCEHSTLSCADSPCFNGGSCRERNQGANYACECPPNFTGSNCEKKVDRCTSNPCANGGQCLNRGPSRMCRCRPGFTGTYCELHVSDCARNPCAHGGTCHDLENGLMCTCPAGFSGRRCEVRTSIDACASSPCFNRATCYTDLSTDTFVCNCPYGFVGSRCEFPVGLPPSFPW
In words: SPR (Biacore). As for the experimental part:
as §1

For experiment [6], the target named is T2, mouse DLL4 on cells. In words: FACS, direct binding to DLL4 cells. On the procedure:
(§2) Stable cell lines overexpressing cell-surface DLL4 were harvested from tissue culture flasks, washed four times and resuspended in phosphate buffered saline (PBS) containing 1% bovine serum albumin and 1 mM CaCl₂ (FACS buffer). 1.5×10⁵ cells were incubated with antibodies at various concentrations in FACS buffer for 60 minutes on ice. […] Following an incubation on ice (4° C., 60 minutes), cells were washed three times and resuspended in FACS buffer. Fluorescence was measured using a Becton Dickinson FACSCalibur-HTS (Becton Dickinson, San Jose, Calif., US). Data were analyzed using Graphpad Prism software and EC₅₀ values were reported as the concentration of antibody to achieve 50% of maximal DLL4 antibodies binding to DLL4 expressing cells.
(§3) The hu1A11.1 affinity matured clones (Table 22) were expressed, purified, and further characterized in vitro. Their activities of binding to cell-bound DLL4 and inhibiting cell-bound DLL4-induced Notch activation were further examined using methods described in Examples 1.3 and 1.6, and are summarized in Table 26 (below).
For orientation: Flow cytometry measures light scatter and fluorescence of single cells or particles in a stream.

In experiment [7] the target is T3, human DLL4, full length, on cells. In words: FACS, direct binding to DLL4 cells. As for the experimental part:
as §2, §3

For experiment [8] the target is unchanged. In words: FACS, DLL4 cells. On the procedure: as §2
The good binder variants, as determined by binding ELISA, were assessed by Biacore (Example 1.1) concurrently with cell based assay screens. The KD for human DLL4 was similar for all variants (see, Biacore, KD in Table 18, below).

In experiment [9] the target is T5, human DLL4 extracellular domain. Nature of the experiment: SPR (Biacore). On the procedure:
as §1, with “Binding” for “The BIACORE® surface plasmon resonance assay (Biacore, Inc., Piscataway, N.J., US) determines the affinity of antibodies with kinetic measurements of on-rate and off-rate constants. Binding”, “calculated. In this assay, on-rates as fast as 10⁶ M⁻¹s⁻¹ and off-rates as slow as 10⁻⁶ s⁻¹ could be measured.” for “calculated.”
The good binder variants, as determined by binding ELISA, were assessed by Biacore (Example 1.1) concurrently with cell based assay screens.
This is another data set of the same source.

Experiment [10] has as its target T3, human DLL4, full length, on cells. Nature of the experiment: cell-based or functional assay. This is another data set of the same source.
Experiment [11] has as its target T5, human DLL4 extracellular domain. In words: capture ELISA, biotin-huDLL4 ECD. (In general: An ELISA detects its analyte on a solid surface through an enzyme-linked reagent.)
The target is the same in experiment [12]. Nature of the experiment: competition ELISA vs Notch-1 Fc. On the procedure: Plates were then washed 3 times with wash buffer (PBS, 0.05% Tween-20) and blocked with 200 μl/well blocking buffer (D-PBS, 1% BSA, 1 mM CaCl₂, 0.05% Tween-20) for 1 hour at 25° C. While blocking, biotin labeled DLL4 extracellular domain (14 nM) was mixed with antibody (30 pM-66 nM, 3-fold serial dilution in blocking buffer) for 1 hour at 25° C. with shaking. Assay plates were washed after blocking, and incubated with DLL4/antibody mixtures (100 μl/well, 1 hour at 25° C. with shaking). Plates were washed again and 100 μl/well streptavidin conjugated with HRP (Fitzgerald #65R-S104PHRPx, diluted 1:5,000 in blocking buffer) was added for 1 hour at 25° C. with shaking. After a final wash, plates were developed using 100 μl/well substrate (TMB Sigma #T8665), and the reaction was stopped using 100 μl/well 1N HCl, and the absorbance was read at 450 nm. Data were analyzed using Graphpad Prism software and IC₅₀ values were reported as the concentration of antibody to achieve 50% reduction of DLL4 bound to Notch1.
Purified variants were further characterized in human Notch-1 competition ELISAs (Example 1.4), which used a format of plating Notch-1 Fc onto ELISA plates and pre-incubating biotinylated human DLL4 plus titrated antibody. Signal was assessed by free biotinylated DLL4 binding to Notch-1 Fc.

T2 sequence (Q9JI71 27-686): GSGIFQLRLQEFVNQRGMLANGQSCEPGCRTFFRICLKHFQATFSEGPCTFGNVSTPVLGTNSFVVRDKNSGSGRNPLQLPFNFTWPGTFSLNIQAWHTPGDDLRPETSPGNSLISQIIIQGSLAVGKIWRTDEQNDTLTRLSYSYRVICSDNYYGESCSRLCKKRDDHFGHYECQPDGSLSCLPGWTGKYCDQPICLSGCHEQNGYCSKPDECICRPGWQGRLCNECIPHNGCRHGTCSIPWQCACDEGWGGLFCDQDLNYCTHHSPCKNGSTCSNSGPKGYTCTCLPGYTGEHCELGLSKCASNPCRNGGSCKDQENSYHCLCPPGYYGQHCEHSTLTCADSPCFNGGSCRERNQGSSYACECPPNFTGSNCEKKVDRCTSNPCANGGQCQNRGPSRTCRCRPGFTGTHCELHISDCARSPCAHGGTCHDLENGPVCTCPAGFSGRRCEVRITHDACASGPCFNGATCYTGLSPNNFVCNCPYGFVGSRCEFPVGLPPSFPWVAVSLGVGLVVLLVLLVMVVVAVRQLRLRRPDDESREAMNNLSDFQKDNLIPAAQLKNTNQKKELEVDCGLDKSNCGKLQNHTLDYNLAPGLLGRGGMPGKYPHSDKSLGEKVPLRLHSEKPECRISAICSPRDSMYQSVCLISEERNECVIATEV
T1 sequence (D3ZHH1 28-530): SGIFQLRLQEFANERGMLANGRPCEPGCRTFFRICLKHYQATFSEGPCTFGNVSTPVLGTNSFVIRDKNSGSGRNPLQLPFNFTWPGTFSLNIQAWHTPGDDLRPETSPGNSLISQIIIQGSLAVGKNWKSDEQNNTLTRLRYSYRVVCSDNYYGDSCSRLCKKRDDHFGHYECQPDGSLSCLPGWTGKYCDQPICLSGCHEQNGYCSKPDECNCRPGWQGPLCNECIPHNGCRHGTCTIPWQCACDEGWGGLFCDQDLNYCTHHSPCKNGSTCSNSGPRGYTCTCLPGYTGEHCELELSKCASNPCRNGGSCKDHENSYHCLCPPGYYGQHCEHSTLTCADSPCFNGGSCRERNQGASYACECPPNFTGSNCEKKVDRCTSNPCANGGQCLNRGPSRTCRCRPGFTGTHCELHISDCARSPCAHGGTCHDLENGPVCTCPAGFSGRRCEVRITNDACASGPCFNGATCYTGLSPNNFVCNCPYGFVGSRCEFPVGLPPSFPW

B1: h1A11.A7 (antibody, V domains shown)
VH: EVQLVESGGGLVQPGGSLRLSCAASGFTFSNFPMAWVRQAPGKGLEWVATISSSDGTTYYRDSVKGRFTISRDNAKNSLYLQMNSLRAEDTAVYYCARGYYNSPFAYWGQGTLVTVSS
VL: DIQMTQSPSSLSASVGDRVTITCRASQDIYINLAWYQQKPGKAPKLLIFDTSDLADGVPSRFSGSGSGTDFTLTISSLQPEDFATYYCQQYDYYPPTFGQGTKLEIK
notes: also called h1A11VH.1 / h1A11.A7 VL
B1: the binding result in experiment [1] is on record as “no binding”. Further, the “Inhibition of Notch Activation via DLL4 cells, Notch reporter assay” value turned out to be 1.79 nM in experiment [2] and 2.92 nM in [3]. Also, the Kd is 7.8 nM in experiment [4] and 5.7 nM in experiment [5]. In addition, the figures for the koff in [4] and in [5] were 0.00124 s⁻¹ and 0.000973 s⁻¹, respectively. The kon in experiment [4] is 158000 M⁻¹ s⁻¹; in [5], 170000 M⁻¹ s⁻¹. For the same molecule, the EC50 in [6] was determined as 0.625 nM; in [7] it was 2.17 nM.

B2: h1A11.A12 (antibody, V domains shown)
VH: B1 VH
VL: B1 VL with I31Y, A43S, D53S, Y87F, Y93W
notes: also called h1A11VH.1 / h1A11.A12 VL
For B2, the binding result in [1] is reported as “no binding”. Also, the “Inhibition of Notch Activation via DLL4 cells, Notch reporter assay” value worked out at 0.832 nM in experiment [2] and 1.66 nM in [3]. The Kd in experiment [4] was 10 nM; in [5], 7.6 nM. For the same molecule, the koff in experiment [4] amounted to 0.00162 s⁻¹; in experiment [5], 0.00132 s⁻¹. For the same molecule, the kon in [4] is 158000 M⁻¹ s⁻¹; in experiment [5], 173000 M⁻¹ s⁻¹. For the same molecule, the EC50 in experiment [6] was found to be 0.568 nM; in [7] it was 1.77 nM.

B3: h38H12.15 (antibody, V domains shown)
VH: EVQLVESGGGLVQPGGSLRLSCAASGFTFSNYGMYWIRQAPGKGLEWVAFISHGGGITYYRDSVKGRFTISRDNSKSTLYLQMNSLRAEDTAVYHCAALNWELGIDYWGQGTMVTVSS
VL: DIQMTQSPSSLSASVGDRVTITCRASEDIYSNLAWYQQKPGKAPKLLIYAANRLQDGVPSRFSGSGSGTDYTLTISSLQPEDFATYYCLQGSKFPLTFGQGTKLEIKR
notes: humanized IgG; also called VH.2a/VL.1b 38H12
On to B3, for which the EC50 in experiment [8] was 2.37 nM; in experiment [11] it was 0.0904 nM; in experiment [12], 5.71 nM. The Kd in [9] amounted to 0.355 nM. In [10], the “Notch Reporter Assay EC50” value stood at 0.837 nM.

B4: h38H12.7 (antibody, V domains shown)
VH: B3 VH with L11V, G16R
VL: B3 VL
notes: humanized IgG; also called VH.1a/VL.1b 38H12
For B4, the EC50 came out at 19.1 nM in [8], 0.18 nM in experiment [11] and 12.5 nM in experiment [12]. The molecule further returned a Kd in experiment [9] of 0.34 nM. Besides, the “Notch Reporter Assay EC50” value in experiment [10] was determined as 2.6 nM.

B5: h38H12.12 (antibody, V domains shown)
VH: B3 VH with L11V, G16R, I37V, S77N, H95Y
VL: EIVMTQSPATLSVSPGERATLSCRASEDIYSNLAWYQKKPGQSPRLLIYAANRLQDGVPARFSGSGSGTEYTLTISSLQSEDFAVYFCLQGSKFPLTFGQGTKLEIKR
notes: humanized IgG; also called VH.1b/VL.2a 38H12
Turning to B5, the figures for the EC50 in [8], in experiment [11] and in experiment [12] were 1.48 nM, 0.165 nM and 3.23 nM, respectively. Besides, in [9], the Kd was found to be 0.819 nM. Besides, the “Notch Reporter Assay EC50” value in experiment [10] was 1.06 nM.

B6: h38H12.16 (antibody, V domains shown)
VH: B3 VH
VL: B5 VL
notes: humanized IgG; also called VH.2a/VL.2a 38H12
Take B6: the EC50 in experiment [8] is 2.91 nM; in experiment [11] it was 0.17 nM; in [12], 3.77 nM. This molecule also returned a Kd in [9] of 0.392 nM. Also, the “Notch Reporter Assay EC50” value in experiment [10] stood at 1.19 nM.

B7: h38H12.8 (antibody, V domains shown)
VH: B3 VH with L11V, G16R
VL: B5 VL
notes: humanized IgG; also called VH.1a/VL.2a 38H12
Turning to B7, the EC50 in experiment [8] worked out at 20 nM; in experiment [11] it was 0.197 nM; in experiment [12], 8.31 nM. In experiment [9], binding was characterised by a dissociation constant (Kd) of 0.397 nM. Further, in experiment [10], the “Notch Reporter Assay EC50” value stood at 5.56 nM.

By Kd is commonly meant the constant that tells how readily two partners part at equilibrium. The term koff denotes the rate constant with which the complex falls apart. As usually defined, the kon is the rate constant with which the complex forms. The EC50 is the midpoint of the concentration-response curve.
